Results from the supplement of paper PMC9112550, “Optimization of the antimicrobial peptide Bac7 by deep mutational scanning” (BMC Biology, 2022).

Test system: Escherichia coli TOP10
Test: shrunken log2 fold change of peptide-encoding DNA abundance (4.5 h post-induction vs induction); higher = less antimicrobial activity (less host growth inhibition)
Settings: time post-induction: 4.5 h; library: site-saturation at positions 5, 18, 19, 20
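Note: peptides expressed intracellularly from a pBAD plasmid library in pooled LB shake-flask culture, induced with 0.3% L-arabinose, DNA abundance read by NGS, three biological replicates, DESeq2 with apeglm shrinkage.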

Sequence	shrunken log2 fold change
RRIRLRPPRLPRPRPRPCGDPRP	-0.00813
RRIRGRPPRLPRPRPRPRIFPRP	0.804
RRIRTRPPRLPRPRPRPAGIPRP	-0.0928
RRIRHRPPRLPRPRPRPRQGPRP	0.093
RRIRTRPPRLPRPRPRPCWWPRP	0.636
RRIRQRPPRLPRPRPRPGMFPRP	0.00926
RRIRTRPPRLPRPRPRPACDPRP	0.139
RRIRMRPPRLPRPRPRPQFGPRP	0.104
RRIRWRPPRLPRPRPRPWPSPRP	0.018
RRIRNRPPRLPRPRPRPVNHPRP	-0.163
RRIRLRPPRLPRPRPRPSGDPRP	0.0305
RRIRTRPPRLPRPRPRPGELPRP	-0.108
RRIRERPPRLPRPRPRPEPVPRP	-0.00161
RRIRLRPPRLPRPRPRPYLMPRP	-0.69
RRIRPRPPRLPRPRPRPSSFPRP	-0.345
RRIRNRPPRLPRPRPRPIFPPRP	-0.281
RRIRFRPPRLPRPRPRPCMKPRP	0.068
RRIRSRPPRLPRPRPRPDQTPRP	0.0249
RRIRMRPPRLPRPRPRPTTEPRP	0.897
RRIRFRPPRLPRPRPRPYQYPRP	0.0631
RRIRKRPPRLPRPRPRPQDTPRP	-0.0445
RRIRTRPPRLPRPRPRPVPAPRP	0.35

Sequence	shrunken log2 fold change
RRIRLRPPRLPRPRPRPGDKPRP	0.00262
RRIRARPPRLPRPRPRPMPWPRP	0.483
RRIRKRPPRLPRPRPRPPRTPRP	0.829
RRIRLRPPRLPRPRPRPEERPRP	0.231
RRIRLRPPRLPRPRPRPQVVPRP	-0.252
RRIRYRPPRLPRPRPRPIGGPRP	-0.4
RRIRYRPPRLPRPRPRPYWNPRP	-1.63
RRIRSRPPRLPRPRPRPLDAPRP	0.259
RRIRYRPPRLPRPRPRPPVWPRP	0.0256
RRIRYRPPRLPRPRPRPKFMPRP	-0.633
RRIRNRPPRLPRPRPRPEMYPRP	-0.0311
RRIRWRPPRLPRPRPRPIAKPRP	-0.283
RRIRGRPPRLPRPRPRPPALPRP	0.881
RRIRDRPPRLPRPRPRPWLIPRP	-0.138
RRIRGRPPRLPRPRPRPWLVPRP	0.422
RRIRRRPPRLPRPRPRPPVMPRP	0.403
RRIRHRPPRLPRPRPRPATTPRP	-0.101
RRIRLRPPRLPRPRPRPNHMPRP	-0.326
RRIRTRPPRLPRPRPRPNLGPRP	0.152
RRIRVRPPRLPRPRPRPYIVPRP	-0.00649
RRIRVRPPRLPRPRPRPIEYPRP	-0.05
RRIRCRPPRLPRPRPRPLQNPRP	-0.0876

Sequence	shrunken log2 fold change
RRIRGRPPRLPRPRPRPWHVPRP	-0.0733
RRIRRRPPRLPRPRPRPYSIPRP	0.0088
RRIRLRPPRLPRPRPRPVRQPRP	0.569
RRIRLRPPRLPRPRPRPMLWPRP	0.00318
RRIRRRPPRLPRPRPRPPETPRP	0.831
RRIRHRPPRLPRPRPRPFPRPRP	0.0685
RRIRPRPPRLPRPRPRPEWSPRP	-0.0838
RRIRRRPPRLPRPRPRPLISPRP	-0.111
RRIRVRPPRLPRPRPRPCQYPRP	-0.53
RRIRSRPPRLPRPRPRPRMHPRP	0.173
RRIRVRPPRLPRPRPRPWYMPRP	-0.132
RRIRVRPPRLPRPRPRPTFSPRP	-0.3
RRIRIRPPRLPRPRPRPGVQPRP	-0.00174
RRIRYRPPRLPRPRPRPYPCPRP	-0.268
RRIRPRPPRLPRPRPRPAAVPRP	0.41
RRIRMRPPRLPRPRPRPKMMPRP	0.351
RRIRSRPPRLPRPRPRPWHFPRP	-0.0226
RRIRMRPPRLPRPRPRPRYIPRP	-0.31
RRIRRRPPRLPRPRPRPPSAPRP	0.626
RRIRRRPPRLPRPRPRPPQRPRP	1.64
RRIRHRPPRLPRPRPRPMMNPRP	-0.0135
RRIRFRPPRLPRPRPRPHYCPRP	-0.197

Sequence	shrunken log2 fold change
RRIRKRPPRLPRPRPRPAPKPRP	1.06
RRIRTRPPRLPRPRPRPNFTPRP	-0.0395
RRIRVRPPRLPRPRPRPYNYPRP	-0.845
RRIRTRPPRLPRPRPRPLCTPRP	-0.106
RRIRKRPPRLPRPRPRPADFPRP	0.344
RRIRTRPPRLPRPRPRPNGGPRP	0.033
RRIRHRPPRLPRPRPRPRQCPRP	-0.0969
RRIRYRPPRLPRPRPRPLFQPRP	-0.76
RRIRIRPPRLPRPRPRPKAHPRP	-0.242
RRIRMRPPRLPRPRPRPANCPRP	-0.242
RRIRARPPRLPRPRPRPRWGPRP	0.425
RRIRNRPPRLPRPRPRPPNRPRP	2.99
RRIRKRPPRLPRPRPRPPHLPRP	0.332
RRIRHRPPRLPRPRPRPPTMPRP	-0.354
RRIRCRPPRLPRPRPRPQRSPRP	2.66
RRIRIRPPRLPRPRPRPETMPRP	-0.108
RRIRLRPPRLPRPRPRPDDTPRP	-0.0691
RRIRQRPPRLPRPRPRPWVFPRP	-0.227
RRIRSRPPRLPRPRPRPIYLPRP	-0.336
RRIRKRPPRLPRPRPRPNERPRP	-0.0286
RRIRTRPPRLPRPRPRPDEFPRP	-0.00523
RRIRNRPPRLPRPRPRPYQSPRP	-0.00256

Sequence	shrunken log2 fold change
RRIRMRPPRLPRPRPRPQNEPRP	0.155
RRIRQRPPRLPRPRPRPYTMPRP	-0.128
RRIRRRPPRLPRPRPRPEYAPRP	0.0407
RRIRCRPPRLPRPRPRPTPNPRP	0.786
RRIRVRPPRLPRPRPRPNHCPRP	-0.181
RRIRMRPPRLPRPRPRPQYLPRP	-0.0275
RRIRWRPPRLPRPRPRPTIEPRP	0.145
RRIRQRPPRLPRPRPRPTLPPRP	1.69
RRIRFRPPRLPRPRPRPVFRPRP	-0.362
RRIRLRPPRLPRPRPRPTGYPRP	-0.206
RRIRERPPRLPRPRPRPDQMPRP	-0.161
RRIRCRPPRLPRPRPRPHCQPRP	0.0911
RRIRDRPPRLPRPRPRPWCNPRP	-0.378
RRIRYRPPRLPRPRPRPMVDPRP	-0.248
RRIRLRPPRLPRPRPRPCDVPRP	-0.255
RRIRGRPPRLPRPRPRPRQLPRP	0.549
RRIRIRPPRLPRPRPRPQAGPRP	-0.16
RRIRDRPPRLPRPRPRPCWLPRP	0.127
RRIRVRPPRLPRPRPRPETKPRP	0.242
RRIRCRPPRLPRPRPRPRKYPRP	-0.458
RRIRNRPPRLPRPRPRPESQPRP	-0.00881
